Results taken from patent US20030143225A1 (Genentech, published 2003).

How the values were obtained:
[1] = biological target: truncated transmembrane tissue factor comprising residues 1-243, relipidated (human) (UniProt P13726); experiment: cell-based or functional assay
[2] = biological target: tissue factor on human J82 cells (human, UniProt P13726 33-295); experiment: cell-based or functional assay
[3] = biological target: relipidated human tissue factor (Innovin) (human, UniProt P13726 33-295); experiment: cell-based or functional assay
[4] = biological target: T1, soluble tissue factor composed of the extracellular domain residues 1-219 of hTF (human, UniProt P13726 33-251); experiment: SPR (BIAcore 2000), antibody immobilized, sTF in solution, 1:1 model
T1 construct: Expressed in E. coli; also called sTF
Method: The binding affinity of sTF for immobilized antibody was determined by surface plasmon resonance (SPR) measurements on a Pharmacia BIAcore 2000 instrument (Pharmacia Biosensor). Each antibody was coupled to the sensor chip surface at a level of 2000-3000 resonance units using amine coupling chemistry (Pharmacia Biosensor). In a typical experiment, 4 different antibodies were immobilized on each of the 4 flow cells of the sensor chip so that sensorgrams could be recorded simultaneously for all 4 antibodies. […] The kinetic constants were determined by non-linear regression analysis according to a 1:1 binding model using software supplied by the manufacturer. Dissociation constants were calculated from the kinetic constants. […] These solutions were incubated at ambient temperature for 30 minutes prior to injection onto the sensor chip. […] Affinities were determined by SPR measurements as described above for the wild-type protein.

Sequence of truncated transmembrane tissue factor comprising residues 1-243, relipidated (human) (P13726 33-275): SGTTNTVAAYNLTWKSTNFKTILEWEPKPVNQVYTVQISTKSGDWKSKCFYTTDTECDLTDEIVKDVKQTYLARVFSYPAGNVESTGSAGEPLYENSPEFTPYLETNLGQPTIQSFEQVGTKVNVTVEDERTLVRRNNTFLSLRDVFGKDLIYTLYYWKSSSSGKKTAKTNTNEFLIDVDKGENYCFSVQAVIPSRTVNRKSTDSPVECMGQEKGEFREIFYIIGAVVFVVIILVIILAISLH

| Molecule | concentration that inhibited the initial rate of FX activation in human plasma by 50% [1] [µg/mL] | IC50 of FPA generation, human ex-vivo blood flow system [2] [µg/mL] | antibody concentration that prolonged the clotting time by 1.5-fold (PT assay) [3] [µg/mL] | Kd [4] [nM] | koff [4] [s⁻¹] | kon [4] [M⁻¹ s⁻¹] |
| --- | --- | --- | --- | --- | --- | --- |
| HTF1 antibody | 150 | – | – | – | – | – |
| murine anti-TF antibody 5G6 (antibody, V domains shown, Murine monoclonal antibody purified from ascites) VH: EVLLQQSGPELVKPGASVKIPCKASGYTFTEYNMDWVKQSHGKSLEWIGDINPNNGNTIYNQKFKGKATLTVDKSSTTAYLELRSLTSEDTAVYFCARDHDYYFDFWGQGTTLTVSS VL: DIQMTQTPASQSASLGESVTITCLASQTIDTWLAWYQQKPGKSPQLLIYAATSLADGVPSRFSGSGSGTKFSFKISSLQAEDFVSYYCQQPYSSPYTFGGGTKLELKR | – | 50 | 27 | 1.7 | 0.0005 | 300000 |
